{"source": "patent US20190183976A1", "about": "(GPCR THERAPEUTICS, published 2019)", "binders": {"B1": {"name": "ADCYAP1R1-VC (receptor, human, UniProt P41586 21-468, looked up)", "chain": "MHSDCIFKKEQAMCLEKIQRANELMGFNDSSPGCPGMWDNITCWKPAHVGEMVLVSCPELFRIFNPDQVWETETIGESDFGDSNSLDLSDMGVVSRNCTEDGWSEPFPHYFDACGFDEYESETGDQDYYYLSVKALYTVGYSTSLVTLTTAMVILCRFRKLHCTRNFIHMNLFVSFMLRAISVFIKDWILYAEQDSNHCFISTVECKAVMVFFHYCVVSNYFWLFIEGLYLFTLLVETFFPERRYFYWYTIIGWGTPTVCVTVWATLRLYFDDTGCWDMNDSTALWWVIKGPVVGSIMVNFVLFIGIIVILVQKLQSPDMGGNESSIYLRLARSTLLLIPLFGIHYTVFAFSPENVSKRERLVFELGLGSFQGFVVAVLYCFLNGEVQAEIKRKWRSWKVNRYFAVDFKHRHPSLASSGVNGGTQLSILSKSSSQIRMSGLPADNLAT", "notes": "whole, on cells; Adenovirus-expressed in U-2 OS cells; not shown: VC155, C-terminal fragment of Venus"}, "B2": {"name": "GALR1-VC (receptor, human, UniProt P47211 1-349, looked up)", "chain": "MELAVGNLSEGNASWPEPPAPEPGPLFGIGVENFVTLVVFGLIFALGVLGNSLVITVLARSKPGKPRSTTNLFILNLSIADLAYLLFCIPFQATVYALPTWVLGAFICKFIHYFFTVSMLVSIFTLAAMSVDRYVAIVHSRRSSSLRVSRNALLGVGCIWALSIAMASPVAYHQGLFHPRASNQTFCWEQWPDPRHKKAYVVCTFVFGYLLPLLLICFCYAKVLNHLHKKLKNMSKKSEASKKKTAQTVLVVVVVFGISWLPHHIIHLWAEFGVFPLTPASFLFRITAHCLAYSNSSVNPIIYAFLSENFRKAYKQVFKCHIRKDSHLSDTKESKSRIDTPPSTNCTHV", "notes": "as for B1"}, "B3": {"name": "EDNRB-VC (receptor, human, UniProt P24530 27-442, looked up)", "chain": "EERGFPPDRATPLLQTAEIMTPPTKTLWPKGSNASLARSLAPAEVPKGDRTAGSPPRTISPPPCQGPIEIKETFKYINTVVSCLVFVLGIIGNSTLLRIIYKNKCMRNGPNILIASLALGDLLHIVIDIPINVYKLLAEDWPFGAEMCKLVPFIQKASVGITVLSLCALSIDRYRAVASWSRIKGIGVPKWTAVEIVLIWVVSVVLAVPEAIGFDIITMDYKGSYLRICLLHPVQKTAFMQFYKTAKDWWLFSFYFCLPLAITAFFYTLMTCEMLRKKSGMQIALNDHLKQRREVAKTVFCLVLVFALCWLPLHLSRILKLTLYNQNDPNRCELLSFLLVLDYIGINMASLNSCINPIALYLVSKRFKNCFKSCLCCWCQSFEEKQSLEEKQSCLKFKANDHGYDNFRSSNKYSSS", "notes": "as for B1"}, "B4": {"name": "CXCR4 (receptor, human, UniProt P61073 1-352, looked up)", "chain": "MEGISIYTSDNYTEEMGSGDYDSMKEPCFREENANFNKIFLPTIYSIIFLTGIVGNGLVILVMGYQKKLRSMTDKYRLHLSVADLLFVITLPFWAVDAVANWYFGNFLCKAVHVIYTVNLYSSVLILAFISLDRYLAIVHATNSQRPRKLLAEKVVYVGVWIPALLLTIPDFIFANVSEADDRYICDRFYPNDLWVVVFQFQHIMVGLILPGIVILSCYCIIISKLSHSKGHQKRKALKTTVILILAFFACWLPYYIGISIDSFILLEIIKQGCEFENTVHKWISITEALAFFHCCLNPILYAFLGAKFKTSAQHALTSVSRGSSLKILSKGKRGGHSSVSTESESSSFHSS", "notes": "whole, on cells; also called C-X-C Motif Chemokine Receptor 4; CXC receptor 4"}, "B5": {"name": "TACR3-VC (receptor, human, UniProt P29371 1-465, looked up)", "chain": "MATLPAAETWIDGGGGVGADAVNLTASLAAGAATGAVETGWLQLLDQAGNLSSSPSALGLPVASPAPSQPWANLTNQFVQPSWRIALWSLAYGVVVAVAVLGNLIVIWIILAHKRMRTVTNYFLVNLAFSDASMAAFNTLVNFIYALHSEWYFGANYCRFQNFFPITAVFASIYSMTAIAVDRYMAIIDPLKPRLSATATKIVIGSIWILAFLLAFPQCLYSKTKVMPGRTLCFVQWPEGPKQHFTYHIIVIILVYCFPLLIMGITYTIVGITLWGGEIPGDTCDKYHEQLKAKRKVVKMMIIVVMTFAICWLPYHIYFILTAIYQQLNRWKYIQQVYLASFWLAMSSTMYNPIIYCCLNKRFRAGFKRAFRWCPFIKVSSYDELELKTTRFHPNRQSSMYTVTRMESMTVVFDPNDADTTRSSRKKRATPRDPSFNGCSRRNSKSASATSSFISSPYTSVDEYS", "notes": "as for B1"}, "B6": {"name": "APLNR-VC (receptor, human, UniProt P35414 1-380, looked up)", "chain": "MEEGGDFDNYYGADNQSECEYTDWKSSGALIPAIYMLVFLLGTTGNGLVLWTVFRSSREKRRSADIFIASLAVADLTFVVTLPLWATYTYRDYDWPFGTFFCKLSSYLIFVNMYASVFCLTGLSFDRYLAIVRPVANARLRLRVSGAVATAVLWVLAALLAMPVMVLRTTGDLENTTKVQCYMDYSMVATVSSEWAWEVGLGVSSTTVGFVVPFTIMLTCYFFIAQTIAGHFRKERIEGLRKRRRLLSIIVVLVVTFALCWMPYHLVKTLYMLGSLLHWPCDFDLFLMNIFPYCTCISYVNSCLNPFLYAFFDPRFRQACTSMLCCGQSRCAGTSHSSSGEKSASYSSGHSQGPGPNMGKGGEQMHEKSIPYSQETLVVD", "notes": "as for B1"}, "B7": {"name": "ADORA3-VC (receptor, human, UniProt P0DMS8 1-318, looked up)", "chain": "MPNNSTALSLANVTYITMEIFIGLCAIVGNVLVICVVKLNPSLQTTTFYFIVSLALADIAVGVLVMPLAIVVSLGITIHFYSCLFMTCLLLIFTHASIMSLLAIAVDRYLRVKLTVRYKRVTTHRRIWLALGLCWLVSFLVGLTPMFGWNMKLTSEYHRNVTFLSCQFVSVMRMDYMVYFSFLTWIFIPLVVMCAIYLDIFYIIRNKLSLNLSNSKETGAFYGREFKTAKSLFLVLFLFALSWLPLSIINCIIYFNGEVPQLVLYMGILLSHANSMMNPIVYAYKIKKFKETYLLILKACVVCHPSDSLDTSIEKNSE", "notes": "as for B1"}, "B8": {"name": "C5AR1-VC (receptor, human, UniProt P21730 1-350, looked up)", "chain": "MDSFNYTTPDYGHYDDKDTLDLNTPVDKTSNTLRVPDILALVIFAVVFLVGVLGNALVVWVTAFEAKRTINAIWFLNLAVADFLSCLALPILFTSIVQHHHWPFGGAACSILPSLILLNMYASILLLATISADRFLLVFKPIWCQNFRGAGLAWIACAVAWGLALLLTIPSFLYRVVREEYFPPKVLCGVDYSHDKRRERAVAIVRLVLGFLWPLLTLTICYTFILLRTWSRRATRSTKTLKVVVAVVASFFIFWLPYQVTGIMMSFLEPSSPTFLLLKKLDSLCVSFAYINCCINPIIYVVAGQGFQGRLRKSLPSLLRNVLTEESVVRESKSFTRSTVDTMAQKTQAV", "notes": "as for B1"}, "B9": {"name": "CALCR-VC (receptor, human, UniProt P30988 25-474, looked up)", "chain": "AFSNQTYPTIEPKPFLYVVGRKKMMDAQYKCYDRMQQLPAYQGEGPYCNRTWDGWLCWDDTPAGVLSYQFCPDYFPDFDPSEKVTKYCDEKGVWFKHPENNRTWSNYTMCNAFTPEKLKNAYVLYYLAIVGHSLSIFTLVISLGIFVFFRSLGCQRVTLHKNMFLTYILNSMIIIIHLVEVVPNGELVRRDPVSCKILHFFHQYMMACNYFWMLCEGIYLHTLIVVAVFTEKQRLRWYYLLGWGFPLVPTTIHAITRAVYFNDNCWLSVETHLLYIIHGPVMAALVVNFFFLLNIVRVLVTKMRETHEAESHMYLKAVKATMILVPLLGIQFVVFPWRPSNKMLGKIYDYVMHSLIHFQGFFVATIYCFCNNEVQTTVKRQWAQFKIQWNQRWGRRPSNRSARAAAAAAEAGDIPIYICHQELRNEPANNQGEESAEIIPLNIIEQESSA", "notes": "as for B1"}, "B10": {"name": "CHRM1-VC (receptor, human, UniProt P11229 1-460, looked up)", "chain": "MNTSAPPAVSPNITVLAPGKGPWQVAFIGITTGLLSLATVTGNLLVLISFKVNTELKTVNNYFLLSLACADLIIGTFSMNLYTTYLLMGHWALGTLACDLWLALDYVASNASVMNLLLISFDRYFSVTRPLSYRAKRTPRRAALMIGLAWLVSFVLWAPAILFWQYLVGERTVLAGQCYIQFLSQPIITFGTAMAAFYLPVTVMCTLYWRIYRETENRARELAALQGSETPGKGGGSSSSSERSQPGAEGSPETPPGRCCRCCRAPRLLQAYSWKEEEEEDEGSMESLTSSEGEEPGSEVVIKMPMVDPEAQAPTKQPPRSSPNTVKRPTKKGRDRAGKGQKPRGKEQLAKRKTFSLVKEKKAARTLSAILLAFILTWTPYNIMVLVSTFCKDCVPETLWELGYWLCYVNSTINPMCYALCNKAFRDTFRLLLLCRWDKRRWRKIPKRPGSVHRTPSRQC", "notes": "as for B1"}}, "key": {"CXCR4-VN [1]": {"target": "T1, CXCR4-VN (human, UniProt P61073 1-352)", "T1 construct": "whole, on cells; Adenovirus-expressed in U-2 OS cells; also called CXCR4 fused with N-terminal fragment of Venus; not shown: VNm10, N-terminal fragment of Venus (VN154 variant with L46F and L64F)", "assay": "BiFC, U-2 OS cells, CXCR4-VN & GPCRx-VC; score=(positive cells/total cells)x100", "procedure": "(§1) Images of about 200 cells from each well were analyzed with Multi-target analysis software in IN Cell Developer ToolBox (GE Healthcare, Waukesha, Wis.). Cell boundary was marked based on Hoechst signal, and fluorescence intensity per cell was measured. Cells with fluorescence intensities higher than background level were considered as BiFC positive cells. […] Positive cells were determined, and positive cell count ratio (“BiFC score”) was calculated as (positive cells/total cells)×100 (see Table 4 below)."}, "CXCR4-VN [2]": {"target": "T1, CXCR4-VN", "assay": "BiFC, U-2 OS cells, CXCR4-VN & GPCRx-VC; score=(positive cells/total cells)x100", "procedure": "as §1", "remark": "listed apart in the source"}, "ADRB2": {"target": "T2, ADRB2 (human, UniProt P07550 1-413)", "T2 construct": "whole, on cells; Untagged: adenovirus-expressed in U-2 OS or MDA-MB-231 cells, or endogenous in patient derived cells and PDX tissue; also called Adrenoceptor Beta 2; Ad-ADRB2", "assay": "proximity ligation assay, GBM patient derived cells (endogenous receptors)", "procedure": "(§2) To perform PLA with PDC samples, the patient derived cells were plated and fixed with 4% PFA on sixteen-well tissue culture slides. […] Slides were then washed and incubated (1 h at 37° C.) with secondary anti-rabbit and anti-mouse antibodies conjugated with plus and minus Duolink II PLA probes. Slides were washed again and then incubated with ligation-ligase solution (30 min at 37° C.) followed by incubation with amplification-polymerase solution (2 h at 37° C.).\nas §2, with “PDCs” for “To perform PLA with PDC samples, the patient derived cells”, “seeded in 96-chamber slide at 100000 ea /well in 100 ul” for “plated and fixed with 4% PFA on sixteen-well tissue”, “media.” for “slides.”"}, "CHRM1": {"target": "T3, CHRM1 (human, UniProt P11229 1-460)", "T3 construct": "whole, on cells; Untagged: adenovirus-expressed in U-2 OS or MDA-MB-231 cells, or endogenous in patient derived cells; also called Cholinergic Receptor Muscarinic 1", "T3 sequence (looked up)": "B10 chain", "assay": "proximity ligation assay, GBM patient derived cells (endogenous receptors)", "procedure": "as §2\nas §2, with “PDCs” for “To perform PLA with PDC samples, the patient derived cells”, “seeded in 96-chamber slide at 100000 ea /well in 100 ul” for “plated and fixed with 4% PFA on sixteen-well tissue”, “media.” for “slides.”"}}, "note": "Where two headings read alike, the source gives them in different places.", "data": [{"binder": "B1", "values": [{"measurement": "BiFC score", "setting": "CXCR4-VN [1]", "value": 23}]}, {"binder": "B2", "values": [{"measurement": "BiFC score", "setting": "CXCR4-VN [1]", "value": 60}, {"measurement": "BiFC score", "setting": "CXCR4-VN [2]", "value": 60}]}, {"binder": "B3", "values": [{"measurement": "BiFC score", "setting": "CXCR4-VN [1]", "value": 41}]}, {"binder": "B4", "values": [{"measurement": "binding result", "setting": "ADRB2", "value": "binds"}, {"measurement": "binding result", "setting": "CHRM1", "value": "binds"}]}, {"binder": "B5", "values": [{"measurement": "BiFC score", "setting": "CXCR4-VN [1]", "value": 33}]}, {"binder": "B6", "values": [{"measurement": "BiFC score", "setting": "CXCR4-VN [1]", "value": 63}, {"measurement": "BiFC score", "setting": "CXCR4-VN [2]", "value": 63}]}, {"binder": "B7", "values": [{"measurement": "BiFC score", "setting": "CXCR4-VN [1]", "value": 43}]}, {"binder": "B8", "values": [{"measurement": "BiFC score", "setting": "CXCR4-VN [1]", "value": 42}]}, {"binder": "B9", "values": [{"measurement": "BiFC score", "setting": "CXCR4-VN [1]", "value": 53}]}, {"binder": "B10", "values": [{"measurement": "BiFC score", "setting": "CXCR4-VN [1]", "value": 24}]}]}
